Patent publication US8852587B2 (priority 2008, dated 2014)
Entries after “also recorded” stand apart in the source; their conditions may differ. Like-named read-outs stand apart in the source and are kept apart here. Square brackets hold non-standard residues; d marks the D form. Peptide text beside a SMILES is read from it.

How the values were obtained:
ScN2a cells = format: cell-based, murine
PrP^C and PrP^Sc = PrP^C and PrP^Sc (Mus musculus, UniProt P04925); format: binding
recombinant mouse PrP [1] = target: T1, recombinant mouse PrP (Mus musculus, UniProt P04925); assay: biochemical; format: binding
PrP^Sc in ScN2a cells [2] = test system: PrP^Sc in ScN2a cells
PrP = PrP (Mus musculus, UniProt P04925); set-up: species or system 129 SvEv mice; settings: in vivo
scrapie (RML) prions [3] = test system: scrapie (RML) prions; set-up: species or system CD1 mice; settings: in vivo
recombinant mouse PrP [4] = target: T1, recombinant mouse PrP; format: binding
Target sequence in this assay (P04925 23-230 limits assumed): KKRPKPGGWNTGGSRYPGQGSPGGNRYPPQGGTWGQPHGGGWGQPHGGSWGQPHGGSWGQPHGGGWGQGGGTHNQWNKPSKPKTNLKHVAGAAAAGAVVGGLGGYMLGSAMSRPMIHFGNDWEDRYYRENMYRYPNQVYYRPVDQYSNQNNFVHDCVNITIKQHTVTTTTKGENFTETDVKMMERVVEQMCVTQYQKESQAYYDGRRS

scrapie (RML) prions [5] = test system: scrapie (RML) prions; set-up: species or system C57/B6 mice; settings: mouse, in vivo, ip
[6] = target: sheep PrP^C and sheep prions (Ovis aries, UniProt P23907)
[7] = test system: MBPAc1-11 T cell receptor transgenic CD4+ T cells; format: cell-based, mouse
[8] = test system: prions in treated ScN2a cells; set-up: species or system tg20 mice; settings: mouse, in vivo
recombinant mouse PrP [9] = target: T1, recombinant mouse PrP
PrP^Sc in ScN2a cells [10] = test system: PrP^Sc in ScN2a cells; remark: listed apart in the source

Sequence of PrP (P04925 23-230 limits assumed): as above

CSCC[C@@H](NC(=O)[C@@H](CC(=O)O)NC(=O)[C@@H](Cc1ccc(O)cc1)NC(=O)[C@@H](Cc1c[nH]c2ccccc12)NC(=O)CN)C(=O)N[C@H](C)C(=O)N[C@H](CC(=O)O)C(=O)N[C@H](CCCNC(=N)N)C(=O)N[C@H](CCC(=O)O)C(=O)N[C@H](Cc1c[nH]c2ccccc12)C(=O)N[C@H](CC(N)=O)C(=O)N[C@H](Cc1c[nH]c2ccccc12)C(=O)N[C@H](CCCNC(=N)N)C(=O)N[C@H](C)C(=O)N[C@H](CS)C(=O)N[C@H](Cc1ccccc1)C(=O)N[C@H](Cc1ccc(O)cc1)C(=O)O [(D-)riCDR3H, gwydmadrewnwracfy] (H-G[dW][dY][dD][dM][dA][dD][dR][dE][dW][dN][dW][dR][dA][dC][dF][dY]-OH)
competition of staining by scFvW226 (ScN2a cells): could be competed by scFvW226 | staining pattern of live ScN2a cells (ScN2a cells): staining all over the cell | PrP conformer recognized by immunoprecipitation / pull-down (PrP^C and PrP^Sc): pulled down only PrP^Sc in a conformation-specific manner; also recorded: pulled down only PrP from scrapie-infected homogenates | Kd (recombinant mouse PrP [1]): 1000 to 10000 nM | antiprion activity (prion clearing) of fragments (PrP^Sc in ScN2a cells [2]): reinstated antiprion activity | concentration at which antiprion activity was exhibited (PrP^Sc in ScN2a cells [2]): 4 µM | overcoming self tolerance of humoral immune response against PrP (PrP): able to overcome self tolerance of humoral immune response against PrP

H-YFCARWNWERDAMDYWG-OH [CDR3H]
competition of staining by scFvW226 (ScN2a cells): could be competed by scFvW226 | digestion by trypsin / protease resistance (ScN2a cells): could be digested by trypsin | staining pattern of live ScN2a cells (ScN2a cells): stained only intracellular compartments | PrP conformer recognized by immunoprecipitation / pull-down (PrP^C and PrP^Sc): conformation-specific recognition of only PrP^Sc; also recorded: pulled down only PrP^Sc in a conformation-specific manner; also recorded: pulled down only PrP from scrapie-infected homogenates | survival of the one surviving immunized mouse (scrapie (RML) prions [3]; ip): > 10 months | protection from prion disease (scrapie (RML) prions [3]; mouse): able to protect from prion disease | average incubation time of the four immunized mice that died (scrapie (RML) prions [3]; mouse, ip): 205 days | clones that only recognized the immunogen (PrP): 8 | hybridoma secreting mABs recognizing both the immunogen and mouse PrP (PrP): 28 | binding by enzyme-linked immunosorbent assay (recombinant mouse PrP [4]): weak binding to recombinant mouse PrP

B1: mAB W226 (antibody, V domains shown)
VH: EVQLQQSGAELARPGTSVNLSCKTSGYSFTGYGVSWVKQRIGQGLEWIGEIYPRSGNTYYNEKFKGKATLTADKSSNTAYMELRSLTSEDSAVYFCARWNWERDAMDYWGQGTSVTVSSAKTTPPSDYPLA
VL: DIVMTQTPLSLPVSLGDQASISCRSSQSLESSSGYPHLNWYLQKPGQSPQLLIYRVSNRFSGVLDRFSGSGSGTDFTLQISRVEAEDLGVYFCLQITHVPWTFGGGTKLEIKRADAAPTVSAA
PrP conformer recognized by immunoprecipitation / pull-down (PrP^C and PrP^Sc): pulls down readily PrP^C from mouse brain homogenates; also recorded: binding to both PrP^C and PrP^Sc was detected | survival time (scrapie (RML) prions [5]): significant effect on increasing the survival time | weight loss (scrapie (RML) prions [5]): none of the treated mice experienced any weight loss | Kd (recombinant mouse PrP [1]; read-out: KD): 0.5 nM | binding of PrP^C from normal sheep homogenate [6]: weak binding of PrP^C from normal sheep homogenate | T cell proliferation [7]: augmented proliferation of Ag-specific T cells; also recorded: increased T cell proliferation

B2: scFvW226: scFv: variable heavy and light chain domains of W226 connected by (Gly4Ser)3-linker, C-terminal myc- and his6-tags; SEQ ID NO:6 (protein)
scFv: MKYLLPTAAAGLLLLAAQPAMAMAEVQLQQSGAELARPGTSVNLSCKTSGYSFTGYGVSWVKQRIGQGLEWIGEIYPRSGNTYYNEKFKGKATLTADKSSNTAYMELRSLTSEDSAVYFCARWNWERDAMDYWGQGTSVTVSSAKTTPPSDYPLAGGGGSGGGGSGGGGSDIVMTQTPLSLPVSLGDQASISCRSSQSLESSSGYPHLNWYLQKPGQSPQLLIYRVSNRFSGVLDRFSGSGSGTDFTLQISRVEAEDLGVYFCLQITHVPWTFGGGTKLEIKRADAAPTVSAAEEQKLISEEDLEHHHHHH
modifications: C-terminal myc and His6 tags; scFv
PrP conformer recognized by immunoprecipitation / pull-down (PrP^C and PrP^Sc): recognizes both PrP^C and PrP^Sc; also recorded: could precipitate both PrP^C and PrP^Sc; also recorded: immunoprecipitated both PrP^C and PrP^Sc | survival time (scrapie (RML) prions [5]): significant effect on increasing the survival time | weight loss (scrapie (RML) prions [5]): none of the treated mice experienced any weight loss | number of sick n/n0 [8]: 0/5 | binding activity to recombinant mouse PrP after heat incubation (recombinant mouse PrP [9]): retained binding activity | binding activity to recombinant mouse PrP after serum incubation (recombinant mouse PrP [9]): retained binding activity | antiprion activity (PrP^Sc in ScN2a cells [2]): antiprion active | concentrations with prion-clearing effects (PrP^Sc in ScN2a cells [2]): > 3.2 nM | minimal / smallest effective concentration clearing prions (PrP^Sc in ScN2a cells [2]): 4 nM | antiprion effect after transfection into ScN2a cells (PrP^Sc in ScN2a cells [10]): clear time-dependent antiprion effect | antiprion effect of conditioned medium of transfected N2a cells (PrP^Sc in ScN2a cells [10]): prions were cleared | T cell proliferation [7]: augmented proliferation of Ag-specific T cells; also recorded: increased T cell proliferation
